Measurements taken from the supplement of paper PMC9170038.

Assays:
[1] = system: K4 kissing-loop RNA reporter; assay: apparent KD of K4 kissing-loop reporter; higher = weaker reporter binding; conditions: Eterna round: R107;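 note: bound reporter read as fluorescence of individual clusters on recovered sequencing chips by microscopy, with normalized cluster intensities fitted with a binding model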
Procedure: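 RNA-MaP round R107: designed RNA switches with theophylline, tryptophan, arginine or FMN aptamers are transcribed on-chip within common flanks. They are titrated with a labelled K4 kissing-loop RNA reporter in RNA-MaP buffer (100 mM Tris pH 7.5, 80 mM KCl, 4 mM MgCl2), without ligand or with the indicated ligand. Median apparent KD per design.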

MS2 coat protein = assay: apparent KD of MS2 coat protein; designed switch direction (-1 OFF switch, 1 ON switch): -1; higher = weaker reporter binding
Procedure, shortened: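 Stalled E. coli RNA polymerase transcribed designed RNA switches on Illumina chips, which were then titrated with SNAP-549-labelled MS2 coat protein, doubling from 0.7 or 1.5 nM to 3 µM. Steps lasted from 0.8–1.5 h at the lowest concentration to 10–20 min at the highest. The apparent KD is each design's median over clusters of curve-fitted normalised fluorescence.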

[2] = input ligand: theophylline 20 uM
[3] = input ligand: tryptophan 2.4 mM
[4] = Eterna round: R95, input ligand: microRNA oligo, concentration not stated
[5] = Eterna round: R95, input ligand: FMN 200 uM
[6] = Eterna round: R95, input ligand: none

Sequence	apparent KD of K4 kissing-loop reporter ([1]; input ligand: FMN 200 uM) [nM]	apparent KD of K4 kissing-loop reporter ([1]; input ligand: arginine 13.2 mM) [nM]	apparent KD of K4 kissing-loop reporter ([1]; input ligand: none) [nM]	apparent KD of K4 kissing-loop reporter [1, 2] [nM]	apparent KD of K4 kissing-loop reporter [1, 3] [nM]	apparent KD of MS2 coat protein (MS2 coat protein; [4]) [nM]	other results
AAAAUAAACCAGUGAUGUUGGUAUCCAGAUACCAGCGACGAAAGUCGCCCUUGGCAGCUGUGGACGUACAAAAUAAGUACGUCCU	930	619	894	746	714		
AAAAUAAAGGAGUGAUGUUCCAUAACGGAUACCAGCCACGAAAGUGGCCCUUGGCAGCUGUGCCAGUGGACGAAUAACGUCCACA [#OpenEnded 6 #StaticStem #K4Early]	164	287	237	280	164		
AAAAUAAAUAGCAGUCAUGGAGUGAUGUUCCGAGGACCGGUACGGCCGCCACUCGACCAUCAUAAGAUGGAUGGCGAAGACUGCA [#SwitchBubble 24 #K4Early]	515	544	483	445	864		
AAAAUAACCCAGUGAUGUUGGUAUACAGAUACCAGCGACGAAAGUCGCCCUUGGCAGCUGUGGACGUACAAAAUAAGUACGUCCU	986	705	1120	902	1010		
AAAAUAAGCCAGUGAUGUUGGUAUGCAGAUACCAGCGACGAAAGUCGCCCUUGGCAGCUGUGGACGUACAAAAUAAGUACGUCCU	253	109	329	331	179		
AAACAUCACUGGGAGUGAUGUUCUCAGUGACGAGGACCGGUACGGCCGCCACUCGCGAGAGAUUUAGUCUAGUCUUGACUGCAUU [Excl Tryptophan A V12]	299	303	264	372	331		
AAACAUUGGUGCGAUACCAGCUGAUCGGAAACGAUCAUGCUGGAGUGAUGUUCCAGGAAAAGCCCUUGGCAGCGCACCGAUGAAA [MAT - Same State Theophlline B - Mod of Eli - D29]	128	79.8	78.5	275	95.9		
UUUCCGGCGCGGGUUUUUUACAUGAGGAUCACCCAUGUCCUCUGCUUGUCUUGUCUUGGGCUUUUUUUGGGUUCGGG [-19, -39.7 kcal, A 8%] (Eterna round: R97, puzzle: Sensor, turn-off variant 1)							apparent KD of MS2 coat protein (MS2 coat protein; input ligand: FMN 200 uM): 697 nM
UUUGUUGUUGUGAGGAUAUCGUUGAUUUUUUGAAACGAGAAGGCACAUGAGGAUCACCCAUGUUUGUUGUUGGU [JR_BMOE4_Sub058] (puzzle: Brourd's mod of Exclusion 4)						58.8	
UUUGUUUAUGUAGGAUAUGCCUGGCGUGCCUUUGCAGAAGGACAUGAGGAUCACCCAUGUAUUGCGGUCUGCGUUCAGAUCGCA [salish99_ExNG1_r4_038] (Eterna round: R96, puzzle: Exclusion NG 1)							apparent KD of MS2 coat protein (MS2 coat protein; input ligand: FMN 200 uM): 43.2 nM; apparent KD of MS2 coat protein (MS2 coat protein; input ligand: microRNA oligo, concentration not stated): 30.2 nM; apparent KD of MS2 coat protein (MS2 coat protein; input ligand: none): 29.4 nM
UUUUAACAUGAGGAUCACCCAUGUGAGGAUAUCGAAAUUUAUAUUAAUAUUAAUAUAUCGAGAAGGCACAUUUU [JMF 24] (puzzle: Exclusion 1)						74.9	
UUUUAACAUGAGGAUCACCCAUGUGAGGAUAUCGAAAUUUAUAUUAAUAUUUUUAUUUCGAGAAGGCACAUUUU [JMF 73] (puzzle: Exclusion 1)						138	
UUUUAACAUGAGGAUCACCCAUGUGAGGAUAUCGUAAUUUAUAUUAAUAUUAAUAAAACGAGAAGGCACAUUUU [JMF 5] (puzzle: Exclusion 1)						143	apparent KD of MS2 coat protein (MS2 coat protein; [5]): 138 nM; apparent KD of MS2 coat protein (MS2 coat protein; [6]): 85.2 nM
UUUUACAUAGGAUAUAGUCUUUUUUACAUGAGGAUCACCCAUGUCUCUCUUUUUUUUUUUCUAGAAGGAUGUUUUU [JR_E5_Sub017] (puzzle: Exclusion 5)						16.8	
UUUUAGAGAGGAUAUAUAUUGUGAAACAUGAGGAUCACCCAUGUAAUAAUAUGGAUGAAAAUAGAAGGCUCAUUUA [Mat - Exclusion 5 - JL mod - D7] (puzzle: Exclusion 5)						62.7	apparent KD of MS2 coat protein (MS2 coat protein; [5]): 52.1 nM; apparent KD of MS2 coat protein (MS2 coat protein; [6]): 73.6 nM
